Patent US20180142032A1 (Sanofi, published 2018)

Target: T1, human LAMP1 at the cell surface (human, UniProt P11279 29-417)
T1 construct: native on tumour cells (PDX, Colo205, SW480, LS174T) or from the cloned CDS NM_005561.3 in HEK293 and HCT116; signal peptide 1-28 left out; also called huLAMP1; full length human LAMP1
T1 sequence: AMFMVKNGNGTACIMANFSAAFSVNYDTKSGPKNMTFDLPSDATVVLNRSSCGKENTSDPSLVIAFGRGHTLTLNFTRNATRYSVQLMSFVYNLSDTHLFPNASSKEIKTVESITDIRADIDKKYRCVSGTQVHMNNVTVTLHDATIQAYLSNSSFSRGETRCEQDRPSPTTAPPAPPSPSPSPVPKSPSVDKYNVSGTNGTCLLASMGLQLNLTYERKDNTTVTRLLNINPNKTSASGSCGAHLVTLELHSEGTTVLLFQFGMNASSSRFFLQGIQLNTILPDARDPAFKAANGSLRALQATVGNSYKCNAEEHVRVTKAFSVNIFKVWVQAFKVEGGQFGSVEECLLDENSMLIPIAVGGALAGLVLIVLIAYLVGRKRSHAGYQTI
Assay: flow cytometry, transiently transfected HEK293 cells
Excerpt: LAMP1 Coding DNA Sequence, RefSeq NM_005561.3 (SEQ ID NO: 23) was cloned internally. The CDS of Macaca mulatta LAMP1, RefSeq XP_001087801 (SEQ ID NO: 27) was also cloned internally. […] Therefore the secreted LAMP1 used in the following example is referred to cynomolgus monkey. Both CDS were cloned into mammalian expression plasmids under CMV enhancer/promoter and SV40 polyA signals. HEK293 cells (Invitrogen; #K9000-10.) were transiently transfected with human LAMP1 or cynomolgus LAMP1 plasmids using FreeStyle™ MAX 293 Expression System according to the manufacturer's instructions. […] 100 μL/well of goat anti-mouse IgG conjugated with Alexa647 (Invitrogen; # A2135) was added for 45 min at 4° C. and washed three times with PBS 1% BSA. The antibody binding was evaluated after centrifugation and resuspension of cells by adding 200 μl/well PBS 1% BSA and read using Guava® easyCyte™ 8HT Flow Cytometry System. EC50 values were estimated using BIOST@T-SPEED software.

EC50: 14 nM
B1: MAb1 (antibody, mouse IgG2a, kappa)
heavy: QVQLQQSGAELVKPGASVKMSCKASGYIFTNYNIHWVKKSPGQGLEWIGAIYPGNGDAPYSQKFKDKATLTADKSSSTTYMQLSRLTSEDSAVYYCVRANWDVAFAYWGQGTLVSVSAAKTTAPSVYPLAPVCGDTTGSSVTLGCLVKGYFPEPVTLTWNSGSLSSGVHTFPAVLQSDLYTLSSSVTVTSSTWPSQSITCNVAHPASSTKVDKKIEPRGPTIKPCPPCKCPAPNLLGGPSVFIFPPKIKDVLMISLSPIVTCVVVDVSEDDPDVQISWFVNNVEVHTAQTQTHREDYNSTLRVVSALPIQHQDWMSGKEFKCKVNNKDLPAPIERTISKPKGSVRAPQVYVLPPPEEEMTKKQVTLTCMVTDFMPEDIYVEWTNNGKTELNYKNTEPVLDSDGSYFMYSKLRVEKKNWVERNSYSCSVVHEGLHNHHTTKSFSRTPGK
light: DIQMTQSPPSLSASLGGKVTITCKASQDIDRYMAWYQDKPGKGPRLLIHDTSTLQPGIPSRFSGSGSGRDYSFSISNLEPEDIATYYCLQYDNLWTFGGGTKLEIKRADAAPTVSIFPPSSEQLTSGGASVVCFLNNFYPKDINVKWKIDGSERQNGVLNSWTDQDSKDSTYSMSSTLTLTKDEYERHNSYTCEATHKTSTSPIVKSFNRNEC
notes: murine monoclonal IgG, kappa, from hybridoma; also called murine MAb1
